± gives the standard deviation.

This series is described as follows: protein stability index of a GFP-peptide fusion (GPS, HEK-293T) (PSI 1-6); higher = more stable. Conditions: c terminus: a fixed tail appended.
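Also: 24-mer peptide tiles fused after GFP, lentivirally expressed, FACS-sorted into six equal bins by GFP/DsRed ratio, decoded by Illumina sequencing, PSI is the read-weighted mean bin number.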

Regarding ALLKFHTLDSYEDKQKLKRTEIIS [YJU2B], the protein stability index by setting is: (treatment: DMSO) 2.53 ± 0.3; (treatment: MLN4924 1 uM, 8 h) 2.53 ± 0.3.

Take ALMRMLDNLGYRTGYPYRYPALRE [ADD1]: the protein stability index is, setting by setting: (treatment: DMSO) 2.79 ± 0.4; (treatment: MLN4924 1 uM, 8 h) 2.65 ± 0.59.

For ALQAPHSPSKTDGKELAGTMDGEG [PBXIP1], the protein stability index runs as follows: (treatment: DMSO) 5.25 ± 0.25; (treatment: MLN4924 1 uM, 8 h) 5.34 ± 0.084.

For the sequence ALSGVGGIRLPNGKLKCDICGIIC [IKZF1], the protein stability index runs as follows: (treatment: DMSO) 1.96 ± 0.26; (treatment: MLN4924 1 uM, 8 h) 2.1 ± 0.34.

In the case of ALSPSATAKRINRTSLSSGATVRS [CDC14A], the protein stability index by setting is: (treatment: DMSO) 4.1 ± 0.11; (treatment: MLN4924 1 uM, 8 h) 4.16 ± 0.11.

For the sequence ALVVALWGPLQDSLEHTLRVAIAH [TSPAN10], the protein stability index reads like this: (treatment: DMSO) 2.89 ± 0.12; (treatment: MLN4924 1 uM, 8 h) 3.05 ± 0.15.

As to AMAERNRRDAEEWFHAKSAELNKE [KRT13], the protein stability index is 5.03 ± 0.27 (treatment: DMSO) and 5.01 ± 0.29 (treatment: MLN4924 1 uM, 8 h).

Regarding AMGHSQDRLTTFQENQARTHVLSK [LRRC45], the protein stability index reads like this: (treatment: DMSO) 4.7 ± 0.21; (treatment: MLN4924 1 uM, 8 h) 4.7 ± 0.28.

Regarding AMREAIQSYPSQDKPLPPPPPGSL [SOAT2], the protein stability index reads like this: (treatment: DMSO) 4.23 ± 0.12; (treatment: MLN4924 1 uM, 8 h) 4.04 ± 0.35.

Turning to APDEKRSNVRWDHESVCKYYLCGF [LUC7L3], the protein stability index reads like this: (treatment: DMSO) 2.34 ± 0.28; (treatment: MLN4924 1 uM, 8 h) 2.41 ± 0.24.

For the sequence APGPSPADKKRSGKKKISKADIGA [WAS], the protein stability index is, setting by setting: (treatment: DMSO) 5.02 ± 0.23; (treatment: MLN4924 1 uM, 8 h) 4.86 ± 0.17.

Regarding APGRPGHPSGHWATCRLCGEQVGR [ZBED3], the protein stability index runs as follows: (treatment: DMSO) 2.331 ± 0.015; (treatment: MLN4924 1 uM, 8 h) 2.81 ± 0.41.

With APRFNQQLYTAYILENRPPGSLLC [PCDHGC5], the protein stability index runs as follows: (treatment: DMSO) 2.1 ± 0.2; (treatment: MLN4924 1 uM, 8 h) 2.07 ± 0.28.

In turn, AQAAAAESDSRKVAEETPDGAPAL [PRKX] returned a protein stability index (treatment: DMSO) of 5.38 ± 0.092 and a protein stability index (treatment: MLN4924 1 uM, 8 h) of 5.55 ± 0.12.

With AQALRQELERQRRLLGSVQQDLER [PBXIP1], the protein stability index runs as follows: (treatment: DMSO) 4.08 ± 0.091; (treatment: MLN4924 1 uM, 8 h) 4.23 ± 0.12.

AQEDSLNKLALQYGCKVADIKKVN [LYSMD4] registered a protein stability index (treatment: DMSO) of 3.41 ± 0.14 and a protein stability index (treatment: MLN4924 1 uM, 8 h) of 3.71 ± 0.15.

With AQGPNKPGYLVGRNNANGVDLNRN [CPN1], the protein stability index was found to be 4.33 ± 0.11 (treatment: DMSO) and 4.35 ± 0.16 (treatment: MLN4924 1 uM, 8 h).

As for ARAEAEQMAKKAEAFQLYQEAAQL [FLOT1], the protein stability index was determined as 4.49 ± 0.17 (treatment: DMSO) and 4.52 ± 0.3 (treatment: MLN4924 1 uM, 8 h).

In the case of AREHFGTVKTHLTSLKTKFPAEQY [TSN], the protein stability index by setting is: (treatment: DMSO) 3.02 ± 0.085; (treatment: MLN4924 1 uM, 8 h) 3.08 ± 0.48.

For the sequence ARIRDEEAQRASFLQNAVLAYVQA [LRRC45], the protein stability index is, setting by setting: (treatment: DMSO) 2.46 ± 0.2; (treatment: MLN4924 1 uM, 8 h) 2.49 ± 0.29.

Turning to ASSRASENQSPSSSNYFSPRESTD [ZBTB22], the protein stability index by setting is: (treatment: DMSO) 5.3 ± 0.29; (treatment: MLN4924 1 uM, 8 h) 5.167 ± 0.043.

As to ASTKMCEQALGKGCGADSKKKRPP [PLK2], the protein stability index is, setting by setting: (treatment: DMSO) 4.58 ± 0.11; (treatment: MLN4924 1 uM, 8 h) 4.76 ± 0.24.

In the case of ASWYSLSKGMQDFNYLHTNCFEIT [CPN1], the protein stability index was 2.56 ± 0.58 (treatment: DMSO) and 2.23 ± 0.4 (treatment: MLN4924 1 uM, 8 h).

For AVCKATTHEVMGPKKKHLDYLIQA [SNAP91], the protein stability index (treatment: DMSO) stood at 3.06 ± 0.29 and the protein stability index (treatment: MLN4924 1 uM, 8 h) worked out at 2.96 ± 0.14.

Turning to AVFIALLPILGHRDYKIQASRTWC [PTGFR], the protein stability index runs as follows: (treatment: DMSO) 2.95 ± 0.64; (treatment: MLN4924 1 uM, 8 h) 2.81 ± 1.1.

For the sequence AWEDSHGSQDGHFVLSCSYDGLDC [SCNN1D], the protein stability index by setting is: (treatment: DMSO) 3.73 ± 0.17; (treatment: MLN4924 1 uM, 8 h) 3.59 ± 0.19.

In the case of AWHCSESGQRLGGYRTSAVASGLQ [WDFY2], the protein stability index runs as follows: (treatment: DMSO) 2.84 ± 0.14; (treatment: MLN4924 1 uM, 8 h) 3.1 ± 0.16.

On to AWKELDRNYLNYGEEGAPGKWQQQ [CHGB], for which the protein stability index is, setting by setting: (treatment: DMSO) 3.47 ± 0.43; (treatment: MLN4924 1 uM, 8 h) 3.75 ± 0.67.

Consider AYDFHGSWEKVTGHNSPLYKRQEE [CHIT1], for which the protein stability index (treatment: DMSO) came out at 4.33 ± 0.37 and the protein stability index (treatment: MLN4924 1 uM, 8 h) came out at 4.14 ± 0.45.

Take AYVAEREDELSLVKGSRVTVMEKC [NCK2]: the protein stability index (treatment: DMSO) was 4.31 ± 0.31 and the protein stability index (treatment: MLN4924 1 uM, 8 h) is 4.48 ± 0.19.

As to CAAVLPGKPGDRNCPEFPPPDRTL [RSPH3], the protein stability index is, setting by setting: (treatment: DMSO) 4.16 ± 0.42; (treatment: MLN4924 1 uM, 8 h) 3.76 ± 0.16.

In the case of CAGPGFTHNIAHGSLGFEPVYVSC [SPAG8], the protein stability index is 2.48 ± 0.75 (treatment: DMSO) and 2.49 ± 0.64 (treatment: MLN4924 1 uM, 8 h).

In the case of CAMEDHNCEQLCVNVPGSFVCQCY [MATN2], the protein stability index was found to be 2.5 ± 0.35 (treatment: DMSO) and 2.48 ± 0.39 (treatment: MLN4924 1 uM, 8 h).

CATVGNRGFVFGGRYRDARMNDLH [KLHDC2]: the protein stability index worked out at 2.19 ± 0.36 (treatment: DMSO) and 2.05 ± 0.19 (treatment: MLN4924 1 uM, 8 h).

CCEFLKRQLDPSNCLGIRAFADTH [KLHL20]: the protein stability index runs as follows: (treatment: DMSO) 2.62 ± 0.69; (treatment: MLN4924 1 uM, 8 h) 2.42 ± 0.48.

In the case of CDDGGDGRGAVVPGAGLRRPTYTP [ZBTB22], the protein stability index by setting is: (treatment: DMSO) 4.35 ± 0.23; (treatment: MLN4924 1 uM, 8 h) 4.25 ± 0.26.

Values taken from the supplement of paper PMC10567573.
